Results from patent publication US20110033935.

Target: T1, HSV2
T1 chain: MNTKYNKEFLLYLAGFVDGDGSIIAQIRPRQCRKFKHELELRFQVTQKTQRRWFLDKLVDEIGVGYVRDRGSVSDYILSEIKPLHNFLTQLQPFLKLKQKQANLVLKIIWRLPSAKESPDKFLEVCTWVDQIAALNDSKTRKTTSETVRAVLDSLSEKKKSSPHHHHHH

B1: HSV1 (protein)
chain: MNTKYNKEFLLYLAGFVDGDGSIIAQIKPRQSCKFKHELRLQFQVTQKTQRRWFLDKLVDEIGVGYVRDRGSVSDYILSEIKPLHNFLTQLQPFLKLKQKQANLVLKIIWRLPSAKESPDKFLEVCTWVDQIAALNDSKTRKTTSETVRAVLDSLSEKKKSSPHHHHHH
cleavage of a linearized DNA substrate with the intended non-palindromic recognition sequence (SEQ ID NO: 28, HSV UL36 gene) by the 1:1 mixture: each rationally-designed meganuclease heterodimer cleaves its intended DNA site
